According to publication PMC9000616 (Molecules, 2022):

Target: the molecule itself
Test: AUC; sedimentation velocity, 20 °C, Rayleigh interference optics, c(s) analysis converted into c(M); AtDSEL at 3.0, 1.5 and 0.8 mg/mL; CaPLA1 at 1.1, 0.5 and 0.3 mg/mL

B1: Arabidopsis thaliana DAD1-like seedling establishment-related lipase (enzyme, UniProt O49523 1-419, looked up)
chain: MKRKKKEEEEEKLIVTREFAKRWRDLSGQNHWKGMLQPLDQDLREYIIHYGEMAQAGYDTFNINTESQFAGASIYSRKDFFAKVGLEIAHPYTKYKVTKFIYATSDIHVPESFLLFPISREGWSKESNWMGYVAVTDDQGTALLGRRDIVVSWRGSVQPLEWVEDFEFGLVNAIKIFGERNDQVQIHQGWYSIYMSQDERSPFTKTNARDQVLREVGRLLEKYKDEEVSITICGHSLGAALATLSATDIVANGYNRPKSRPDKSCPVTAFVFASPRVGDSDFRKLFSGLEDIRVLRTRNLPDVIPIYPPIGYSEVGDEFPIDTRKSPYMKSPGNLATFHCLEGYLHGVAGTQGTNKADLFRLDVERAIGLVNKSVDGLKDECMVPGKWRVLKNKGMAQQDDGSWELVDHEIDDNEDLDF
notes: AtDSEL, phospholipase A1 of Arabidopsis thaliana, full length, UniProt O49523; A non-native Gly from the TEV site (ENLYFQG) is left at the N-terminus after cleavage; Homodimer by crystal structure and AUC; also called AtDSEL; source: E. coli BL21 (DE3), purified (Ni-NTA, TEV cleavage, Ni-NTA, SEC); not shown: His6, N-terminal, cleaved
stoichiometry N: 2

B2: Capsicum annuum phospholipase A1 homolog (enzyme, UniProt A5YW95 1-397, looked up)
chain: MGSMAEKWEELSGKNNWEGLLNPLDLDLRKYIIQYGELAQATYDTFISERASKYAGASRYSMENFFTKVGLDPSKYHVTKFFYGTSSIPLPDAFMTRSLSREAWSKESNFMGYIAVATDEGKVALGRRDIVINWRGTLQVLEWVNDLQFLLVPAPKVFGDGGLLPLFHPLVHHGFHNIYTTENPRSQFNKTCVRDQVMEEVKRLVEEYKNEEVSITVTGHSLGASLATLNAVDIAFNGINKSSNGKEFPVTAFVFASPKVGDLNFHKAFSKLKHLHILRIHNLLDIVPKYPPVGYFDVGQELMIDTTKSPYVKPPGEVVSWHLLEPYLHGIAGTQGIGMTAGFKLEVNRDISLVNKQWMILKDEYCIPPLWWSEKHKGMVQQQDGSWLLQDRDDYEF
notes: CaPLA1, phospholipase A1 of hot pepper (Capsicum annuum), full length, UniProt A5YW95; A non-native Gly from the TEV site (ENLYFQG) is left at the N-terminus after cleavage; Homodimer by crystal structure and AUC; also called CaPLA1; source: E. coli BL21 (DE3), purified (Ni-NTA, TEV cleavage, Ni-NTA, SEC); not shown: His6, N-terminal, cleaved
stoichiometry N: 2
